Assay results published in patent US6919086B1, “Graminae pollen allergen mutants for specific immunotherapy, and production and use of the same” (Merck Patent Gesellschaft mit, priority 1997, dated 2005).
“Also recorded” adds a separate entry of the source. Read-outs that look alike come from different tables or passages of the source.

How the values were obtained:
[1] = system: IgE antibodies of allergic patients; experiment: EAST inhibition test (IgE reactivity / allergenicity); type: binding, human; conditions: for IC50: read-out: Inhibition value 50% (concentration of the inhibitor at 50% inhibition); for Allergenic potency (Prel) 25%: relative to native Phl p 5b at 25% inhibition; for Allergenic potency (Prel) 50%: relative to native Phl p 5b at 50% inhibition
Procedure: The effects of the induced mutations on the allergenicity, i.e. the ability to bind to the IgE antibodies of allergic patients, of the modified recombinant allergens is determined qualitatively and quantitatively by means of the EAST inhibition test. […] The extent of the immunochemical relatedness (cross reactivity) can also be quantified. This EAST inhibition test only takes the reaction with IgE antibodies into account.
The binding of the allergens by the IgE antibodies is the basic prerequisite for the allergen-specific activation of the effector cells (mast cells, basophils, inter alia) in type I allergy. The allergen-specific inhibition of the enzyme/allergen sorbent test (EAST) is the best means for qualitatively and quantitatively recording the binding of the allergens to IgE anti-bodies. The EAST inhibition test is carried out as follows. Microtitre plates are coated with allergen (natural or recombinant Ph1 p 5 or Ph1 p 5b) (1 μg/ml). After the unbound allergen molecules have been removed by washing, non-specific plastic binding sites are blocked with bovine serum albumin (0.5%). […] from allergic patients, as a representative pool of 10-30 donors or as an individual serum, is incubated, in a suitable dilution, with the allergen-coated microtritre plates. The bound allergen-specific IgE antibodies are quantified using enzyme-coupled anti-IgE antibodies (e.g. alk. phosphatase-a-IgE antibodies). This binding is inhibited by soluble allergen or the substance to be tested (allergen mutants) in dependence on the concentration. The inhibition curve obtained with the purified natural allergen Ph1 p 5b is used as the reference.

[2] = system: Phl p 5b-reactive T cell lines (TCLs) from allergic patients; experiment: Proliferative reaction of Phl p 5b-reactive oligoclonal T cell lines ([3H]-thymidine incorporation); type: cell-based, human; conditions: secondary activator 0.3 μM
Procedure: In the second phase, oligoclonal T cell lines, which have been established by repeated stimulation with the relevant allergens, are employed for the testing. Once again, only those modified recombinant allergens which at least give rise to a stimulation index (SI) of 50% of the SI of the wild type are taken into consideration.
(§1) 40 ml of heparinized blood were obtained from each patient. Peripheral mononuclear cells (PBMC) were then isolated from this blood sample by means of the customary method using density gradient centrifugation. Analogous cell isolations were carried out at a later stage when it was necessary to obtain irradiated autologous antigen-presenting cells (APC) for characterizing the TCL and TCC further. After the PBMC had been counted, TCL which reacted to group 5 allergens in vitro were established as follows and as has already been described in detail elsewhere (Lit. 1): in each well of 24-well microculture plates, from 1.5 to 2.0×10^6 PBMC in 1 ml of culture medium (UltraCulture) were stimulated for 7 days in the added presence of natural Phl p5 allergens (in each case 10 μg/well) which had been purified by immunoaffinity chromatography. A total of from 8 to 10 of these cultures were set up. The isolation of Phl p5 by means of immunoaffinity chromatography has been described in detail (Lit. 2). At the end of the 7 days of culture, IL-2 (from 10 to 20 IU/well) was added to the cell cultures for a further 5 to 7 days. All the individual cultures were then pooled and the T cell blasts were enriched by means of density gradient centrifugation; the TCL which were obtained were then tested in a specific lymphocyte proliferation test (see Lit. 1 as well). For this, 2×10^4/ml TCL blasts were in each case cultured with 5×10^4/ml irradiated autologous APCs in triplicate samples in 96-well microculture plates. 10-20 μg of Phl p5 allergen were added as the specific antigen stimulus. After 56 hours of incubation, ^3H-labelled thymidine (1 μCi/well) was pipetted into the microcultures. After a further 16 hours, the radioactivity which had been incorporated into the proliferating T cell blasts was measured in a beta counter (Matrix 96). The results were calculated, as the arithmetic mean of the multiple samples, in counts per minute (cpm). The criterion for the quality of the TCL was the stimulation index, which was obtained by relating the cpm values with Phl p5 addition to those without Phl p5 addition.
The oligoclonal T cell lines (TCLs) from 8 patients who were allergic to grass pollen (see Ex. 1) were established by repeated activation with natural Ph1 p 5b (a+b) or recombinant rPh1 p 5b or 5a+5b.
The proliferative reaction of these TCLs was tested using the rPh1 p 5b mutants (FIG. 10).

[3] = system: Phl p 5b-reactive T cell clones (TCCs) from allergic patients; experiment: Proliferative reaction of Phl p 5b-reactive T cell clones ([3H]-thymidine incorporation); type: cell-based, human; conditions: final concentration 0.3 μM
Procedure: as §1
After a TCL had been cloned (see below), the specificity of the isolated TCCs were determined as has just been described. Stimulation indices of at least 5 were rated as being positive for the TCCs. The determination of T cell epitopes for defining the T cell-reactive regions on group 5 allergens was also carried out using specific proliferation tests, with 1-2 μg of synthesized dodecapeptide/ml being used for this purpose in each case (see below).
The reactivity of the recombinant Ph1 p 5b mutants was tested on established T cell clones (TCCs) of known specificity. The TCCs derive from patients who are allergic to grass pollen (see Ex. 1) and are directed against the T cell-reactive regions A (FIG. 7), B (FIG. 8) and C (FIG. 9). The T cell reactivity was measured by stimulating the clones to proliferate.

[4] = allergic patient serum pool Bor 18/100
[5] = allergic patient serum pool We 6/97
[6] = individual allergic patient serum II/3
[7] = individual allergic patient serum II/17

B1: DM1: deletion mutant of rPhl p 5b (ΔK50-P132, D49→L), SEQ ID NO 91 (protein)
chain: ADAGYAPATPAAAGAAAGKATTEEQKLIEDINVGFKAAVAAAASVPAALAGELQIIDKIDAAFKVAATAAATAPADDKFTVFEAAFNKAIKESTGGAYDTYKCIPSLEAAVKQAYAATVAAAPQVKYAVFEAALTKAITAMSEVQKVSQPATGAATVAAGAATTAAGAASGAATVAAGGYKV
- Allergenicity / IgE reactivity, overall assessment (in words) ([1]; all serum pools and individual sera, Prel values): marked reduction in allergenicity; also recorded: greatly reduced, it is still detectable
- Inhibition value 25% (concentration of the inhibitor at 25% inhibition) [1, 4]: 8.6e-09 mol/L
- IC50 [1, 4]: 28 nM
- Inhibition value 25% (concentration of the inhibitor at 25% inhibition) [1, 5]: 2.3e-08 mol/L
- IC50 [1, 5]: 17000 nM
- Inhibition value 25% (concentration of the inhibitor at 25% inhibition) [1, 6]: 1.2e-08 mol/L
- IC50 [1, 6]: 17 nM
- Inhibition value 25% (concentration of the inhibitor at 25% inhibition) ([1]; individual allergic patient serum II/12): 1.5e-05 mol/L
- Inhibition value 25% (concentration of the inhibitor at 25% inhibition) [1, 7]: 6.5e-09 mol/L
- IC50 [1, 7]: 2 nM
- Allergenic potency (Prel) 25% ([1]; individual serum II/3): 0.0420
- Allergenic potency (Prel) 25% ([1]; individual serum II/12): 3.4 × 10^−5
- Allergenic potency (Prel) 25% ([1]; individual serum II/17): 0.033
- Allergenic potency (Prel) 25% ([1]; serum pool Bor 18/100): 0.039
- Allergenic potency (Prel) 25% ([1]; serum pool We 6/97): 0.022
- Allergenic potency (Prel) 50% ([1]; individual serum II/3): 0.0035
- Allergenic potency (Prel) 50% ([1]; individual serum II/12): 1.0 × 10^−10
- Allergenic potency (Prel) 50% ([1]; individual serum II/17): 0.0010
- Allergenic potency (Prel) 50% ([1]; serum pool Bor 18/100): 0.0015
- Allergenic potency (Prel) 50% ([1]; serum pool We 6/97): 0.0004
- EAST inhibition curve / inhibitory effect (in words) ([1]; serum pool Bor 18/100 (20 donors), FIG. 1): markedly decreased inhibitory effect
- Allergenicity from EAST inhibition curves (in words) ([1]; serum pool We 6/97 and individual sera II3, II12, II17, FIGS. 2-5): greatly reduced allergenicity
- Incorporation of [3H]-thymidine into TCL 2 Eic (stimulation index class) ([2]; primary stimulator n Phl p 5): + (1-2 (+))
- Incorporation of [3H]-thymidine into TCL 3 Fre (stimulation index class) ([2]; primary stimulator n Phl p 5): + (1-2 (+))
- Incorporation of [3H]-thymidine into TCL 4 Mer (stimulation index class) ([2]; primary stimulator n Phl p 5): + (1-2 (+))
- Incorporation of [3H]-thymidine into TCL 5 17.4 (stimulation index class) ([2]; primary stimulator r Phl p 5): + (1-2 (+))
- Incorporation of [3H]-thymidine into TCL 6 Mah (stimulation index class) ([2]; primary stimulator r Phl p 5a, r Phl p 5b): ++ (5-10 (++))
- Incorporation of [3H]-thymidine into TCL 7 19.2 (stimulation index class) ([2]; primary stimulator r Phl p 5b): +++ (>10 (+++))
- Incorporation of [3H]-thymidine into TCL 8 20.1 (stimulation index class) ([2]; primary stimulator r Phl p 5b): +++ (>10 (+++))
- Incorporation of [3H]-thymidine into TCC CB 2 (stimulation index class) ([3]; T cell-reactive region A): +++ (>10 (+++))
- Incorporation of [3H]-thymidine into TCC CB 14 (stimulation index class) ([3]; T cell-reactive region A): +++ (>10 (+++))
- Incorporation of [3H]-thymidine into TCC JR 13 (stimulation index class) ([3]; T cell-reactive region A): +++ (>10 (+++))
- Incorporation of [3H]-thymidine into TCC JR 15 (stimulation index class) ([3]; T cell-reactive region A): +++ (>10 (+++))
- Incorporation of [3H]-thymidine into TCC DW8 (stimulation index class) ([3]; T cell-reactive region B): + (1-2 (+))
- Incorporation of [3H]-thymidine into TCC UZH2 (stimulation index class) ([3]; T cell-reactive region B): +++ (>10 (+++))
- Incorporation of [3H]-thymidine, stimulation index SI, 1st exp. ([3]; T cell-reactive region C): 8.6
- Incorporation of [3H]-thymidine, stimulation index SI, 2nd exp. ([3]; T cell-reactive region C): 6.2
- Incorporation of [3H]-thymidine, stimulation index SI, 3rd exp. ([3]; T cell-reactive region C): 4.4
- Incorporation of [3H]-thymidine, stimulation index class (last column, no head) ([3]; T cell-reactive region C): ++ (5-10 (++))
